From US20220332804A1 (CSL INNOVATION, published 2022)

Key:
Assay in all cases: SPR, antibody captured, C2 as analyte;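 also: biacore SPR at 37 °C, anti-C2 mAbs captured via goat anti-human IgG on CM5 chips, double-referenced sensorgrams fit to a 1:1 kinetic or steady-state model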
human C2 K715A = target: T1, human C2 K715A (human, UniProt P06681 21-752)
T1 sequence: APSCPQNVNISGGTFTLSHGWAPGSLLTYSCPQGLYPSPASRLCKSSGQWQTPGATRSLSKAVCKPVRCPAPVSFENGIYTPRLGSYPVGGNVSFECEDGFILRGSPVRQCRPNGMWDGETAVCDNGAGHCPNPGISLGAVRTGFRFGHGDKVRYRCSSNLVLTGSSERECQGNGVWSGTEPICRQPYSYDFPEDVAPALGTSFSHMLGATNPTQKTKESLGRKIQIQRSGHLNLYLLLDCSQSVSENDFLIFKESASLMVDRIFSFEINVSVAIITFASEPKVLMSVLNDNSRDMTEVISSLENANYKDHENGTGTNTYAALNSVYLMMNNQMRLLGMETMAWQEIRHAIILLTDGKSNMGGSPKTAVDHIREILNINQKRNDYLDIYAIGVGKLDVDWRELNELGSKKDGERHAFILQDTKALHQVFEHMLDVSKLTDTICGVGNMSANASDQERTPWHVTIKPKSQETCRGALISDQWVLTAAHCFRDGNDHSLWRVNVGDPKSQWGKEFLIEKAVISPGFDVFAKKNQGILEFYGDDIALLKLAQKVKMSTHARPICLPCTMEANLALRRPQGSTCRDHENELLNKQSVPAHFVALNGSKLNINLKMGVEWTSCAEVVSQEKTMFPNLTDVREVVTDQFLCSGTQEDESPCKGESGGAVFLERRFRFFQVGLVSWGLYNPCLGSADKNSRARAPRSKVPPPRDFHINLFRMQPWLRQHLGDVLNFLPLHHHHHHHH

human C2 E450A = target: T2, human C2 E450A (human, UniProt P06681 21-752)
T2 sequence: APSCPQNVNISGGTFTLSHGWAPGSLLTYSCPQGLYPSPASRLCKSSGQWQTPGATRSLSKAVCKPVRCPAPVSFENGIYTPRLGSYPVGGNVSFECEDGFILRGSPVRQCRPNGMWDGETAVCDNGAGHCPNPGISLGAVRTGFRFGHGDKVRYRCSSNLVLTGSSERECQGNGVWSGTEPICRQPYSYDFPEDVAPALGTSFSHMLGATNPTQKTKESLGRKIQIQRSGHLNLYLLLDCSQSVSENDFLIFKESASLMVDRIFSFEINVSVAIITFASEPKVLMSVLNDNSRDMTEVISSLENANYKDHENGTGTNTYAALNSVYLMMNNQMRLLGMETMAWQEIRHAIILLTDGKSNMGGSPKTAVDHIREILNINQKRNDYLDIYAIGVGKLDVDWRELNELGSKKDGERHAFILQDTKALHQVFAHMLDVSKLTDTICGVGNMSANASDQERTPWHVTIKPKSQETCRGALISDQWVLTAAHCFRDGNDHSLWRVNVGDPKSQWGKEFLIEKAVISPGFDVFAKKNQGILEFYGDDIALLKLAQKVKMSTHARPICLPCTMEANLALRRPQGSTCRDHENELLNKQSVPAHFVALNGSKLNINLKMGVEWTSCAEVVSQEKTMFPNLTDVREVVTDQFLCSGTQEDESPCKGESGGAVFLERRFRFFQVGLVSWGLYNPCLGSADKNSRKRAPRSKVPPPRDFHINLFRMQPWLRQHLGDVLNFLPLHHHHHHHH

human C2 N471A = target: T3, human C2 N471A (human, UniProt P06681 21-752)
T3 sequence: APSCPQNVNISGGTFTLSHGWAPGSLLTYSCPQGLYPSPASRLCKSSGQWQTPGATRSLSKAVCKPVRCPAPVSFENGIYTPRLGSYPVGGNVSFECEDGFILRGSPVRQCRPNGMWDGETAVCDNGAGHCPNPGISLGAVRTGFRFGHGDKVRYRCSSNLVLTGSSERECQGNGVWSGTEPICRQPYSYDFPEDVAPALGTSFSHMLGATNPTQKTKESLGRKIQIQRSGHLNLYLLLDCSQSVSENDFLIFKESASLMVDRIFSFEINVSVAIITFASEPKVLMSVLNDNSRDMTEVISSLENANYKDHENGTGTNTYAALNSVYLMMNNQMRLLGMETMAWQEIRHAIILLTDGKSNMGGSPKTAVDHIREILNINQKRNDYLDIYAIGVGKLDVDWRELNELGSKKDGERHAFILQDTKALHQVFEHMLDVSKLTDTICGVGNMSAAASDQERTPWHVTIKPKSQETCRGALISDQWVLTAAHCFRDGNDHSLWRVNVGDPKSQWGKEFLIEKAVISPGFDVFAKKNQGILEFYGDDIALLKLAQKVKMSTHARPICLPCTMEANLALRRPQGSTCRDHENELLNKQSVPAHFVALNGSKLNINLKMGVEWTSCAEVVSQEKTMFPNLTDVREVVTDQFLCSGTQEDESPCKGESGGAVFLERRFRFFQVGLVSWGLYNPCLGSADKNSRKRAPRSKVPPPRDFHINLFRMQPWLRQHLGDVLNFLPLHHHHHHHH

human C2 K531A = target: T4, human C2 K531A (human, UniProt P06681 21-752)
T4 sequence: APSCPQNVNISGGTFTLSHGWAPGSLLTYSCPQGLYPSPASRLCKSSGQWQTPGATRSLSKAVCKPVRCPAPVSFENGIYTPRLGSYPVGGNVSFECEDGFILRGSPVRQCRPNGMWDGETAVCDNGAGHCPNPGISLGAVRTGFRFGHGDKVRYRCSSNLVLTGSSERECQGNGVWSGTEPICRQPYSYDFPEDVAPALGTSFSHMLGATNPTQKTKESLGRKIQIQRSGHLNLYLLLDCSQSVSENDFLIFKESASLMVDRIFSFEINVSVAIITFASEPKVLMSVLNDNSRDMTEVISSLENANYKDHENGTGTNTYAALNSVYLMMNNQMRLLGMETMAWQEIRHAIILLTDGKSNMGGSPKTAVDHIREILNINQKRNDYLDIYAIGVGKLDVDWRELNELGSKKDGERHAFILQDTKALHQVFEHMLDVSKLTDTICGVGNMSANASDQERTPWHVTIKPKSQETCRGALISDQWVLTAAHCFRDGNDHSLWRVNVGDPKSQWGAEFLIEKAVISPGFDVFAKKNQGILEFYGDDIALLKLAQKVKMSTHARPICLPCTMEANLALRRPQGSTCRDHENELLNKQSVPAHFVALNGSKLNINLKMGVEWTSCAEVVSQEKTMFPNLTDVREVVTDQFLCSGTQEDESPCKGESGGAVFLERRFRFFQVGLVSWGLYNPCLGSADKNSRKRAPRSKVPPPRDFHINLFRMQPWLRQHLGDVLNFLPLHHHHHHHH

B1: RF16-226 (antibody, human IgG4 S228P, lambda)
heavy: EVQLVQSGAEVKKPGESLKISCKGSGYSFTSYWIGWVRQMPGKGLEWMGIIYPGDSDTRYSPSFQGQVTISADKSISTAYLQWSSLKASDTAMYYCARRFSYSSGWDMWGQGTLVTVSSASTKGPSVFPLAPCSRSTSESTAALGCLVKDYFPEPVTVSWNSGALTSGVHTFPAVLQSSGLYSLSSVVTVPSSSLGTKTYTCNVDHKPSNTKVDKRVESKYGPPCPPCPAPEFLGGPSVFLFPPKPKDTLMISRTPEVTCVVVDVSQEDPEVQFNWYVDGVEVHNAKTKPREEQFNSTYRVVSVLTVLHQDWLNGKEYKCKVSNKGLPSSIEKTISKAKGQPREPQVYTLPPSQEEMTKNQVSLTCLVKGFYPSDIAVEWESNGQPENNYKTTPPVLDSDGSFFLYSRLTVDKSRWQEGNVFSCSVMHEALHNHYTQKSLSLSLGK
light: SYELTQPPSVSVSPGQTARITCSGDALTSKYVAWYQQKSGLAPLLVIYEDTRRPSGIPAKFSGSSSGSVATLTISGAHGDDEADYYCYSTDASGHQRVFGGGTKLTVLSQPKAAPSVTLFPPSSEELQANKATLVCLISDFYPGAVTVAWKADGSPVKAGVETTKPSKQSNNKYAASSYLSLTPEQWKSHRSYSCQVTHEGSTVEKTVAPTECS
notes: pH-dependent anti-C2 antibody from a phage display library; also called WT
Human C2 K715A
  Kd: 16.2 nM
Human C2 E450A
  Kd: 4.2 nM
Human C2 N471A
  Kd: 9.7 nM
Human C2 K531A
  Kd: 12.1 nM
